The record followed here is US20260015426A1 (23ANDME, published 2026).

By Kd is commonly meant the equilibrium constant for the complex coming apart. Higher therefore signals a looser complex. The term koff denotes a measure of how fast the partners let go of each other. A higher koff goes with fast dissociation. By kon is commonly meant the second-order rate constant of association.

To fix the notation:
B1: H5 Fab (VH V51S/G54H) (Fab, V domains shown)
VH: EVQLVESGGGLVQPGGSLRLSCAASGFTFSNYAMSWVRQAPGKGLEWVATSTEGHDYNYYLDDVKGRFTISRDNAKNSLYLQMNSLRAEDTAVYYCARDRWPYFFDYWGQGTLVTVSS
VL: DIQMTQSPSSLSASVGDRVTITCRASENIYSNLAWYQQKPGKSPKLLVYGAKNLADGVPSRFSGSGSGTDYTLTISSLQPEDFATYYCQHFWTTPRTFGGGTKVEIK
notes: Fab with 8xHis tag
B2: K18 Fab (VL A51Y/L33G) (Fab, V domains shown)
VH: EVQLVESGGGLVQPGGSLRLSCAASGFTFSNYAMSWVRQAPGKGLEWVATVTEGGDYNYYLDDVKGRFTISRDNAKNSLYLQMNSLRAEDTAVYYCARDRWPYFFDYWGQGTLVTVSS
VL: DIQMTQSPSSLSASVGDRVTITCRASENIYSNGAWYQQKPGKSPKLLVYGYKNLADGVPSRFSGSGSGTDYTLTISSLQPEDFATYYCQHFWTTPRTFGGGTKVEIK
notes: Fab with 8xHis tag
B3: K11 Fab (VL A51R/K52G) (Fab, V domains shown)
VH: EVQLVESGGGLVQPGGSLRLSCAASGFTFSNYAMSWVRQAPGKGLEWVATVTEGGDYNYYLDDVKGRFTISRDNAKNSLYLQMNSLRAEDTAVYYCARDRWPYFFDYWGQGTLVTVSS
VL: DIQMTQSPSSLSASVGDRVTITCRASENIYSNLAWYQQKPGKSPKLLVYGRGNLADGVPSRFSGSGSGTDYTLTISSLQPEDFATYYCQHFWTTPRTFGGGTKVEIK
notes: Fab with 8xHis tag
B4: K6 Fab (VL Y30W/W92F) (Fab, V domains shown)
VH: EVQLVESGGGLVQPGGSLRLSCAASGFTFSNYAMSWVRQAPGKGLEWVATVTEGGDYNYYLDDVKGRFTISRDNAKNSLYLQMNSLRAEDTAVYYCARDRWPYFFDYWGQGTLVTVSS
VL: DIQMTQSPSSLSASVGDRVTITCRASENIWSNLAWYQQKPGKSPKLLVYGAKNLADGVPSRFSGSGSGTDYTLTISSLQPEDFATYYCQHFFTTPRTFGGGTKVEIK
notes: Fab with 8xHis tag
B5: K5 Fab (VL Y30W/W92L) (Fab, V domains shown)
VH: EVQLVESGGGLVQPGGSLRLSCAASGFTFSNYAMSWVRQAPGKGLEWVATVTEGGDYNYYLDDVKGRFTISRDNAKNSLYLQMNSLRAEDTAVYYCARDRWPYFFDYWGQGTLVTVSS
VL: DIQMTQSPSSLSASVGDRVTITCRASENIWSNLAWYQQKPGKSPKLLVYGAKNLADGVPSRFSGSGSGTDYTLTISSLQPEDFATYYCQHFLTTPRTFGGGTKVEIK
notes: Fab with 8xHis tag
B6: K10/H3 IgG (VL-A51Y, VH-V51S) (antibody, V domains shown)
VH: EVQLVESGGGLVQPGGSLRLSCAASGFTFSNYAMSWVRQAPGKGLEWVATSTEGGDYNYYLDDVKGRFTISRDNAKNSLYLQMNSLRAEDTAVYYCARDRWPYFFDYWGQGTLVTVSS
VL: DIQMTQSPSSLSASVGDRVTITCRASENIYSNLAWYQQKPGKSPKLLVYGYKNLADGVPSRFSGSGSGTDYTLTISSLQPEDFATYYCQHFWTTPRTFGGGTKVEIK
B7: K13 IgG (VL-A51Y/W92I) (antibody, V domains shown)
VH: EVQLVESGGGLVQPGGSLRLSCAASGFTFSNYAMSWVRQAPGKGLEWVATVTEGGDYNYYLDDVKGRFTISRDNAKNSLYLQMNSLRAEDTAVYYCARDRWPYFFDYWGQGTLVTVSS
VL: DIQMTQSPSSLSASVGDRVTITCRASENIYSNLAWYQQKPGKSPKLLVYGYKNLADGVPSRFSGSGSGTDYTLTISSLQPEDFATYYCQHFITTPRTFGGGTKVEIK
B8: K10/H2 IgG (VL-A51Y, VH-R96D) (antibody, V domains shown)
VH: EVQLVESGGGLVQPGGSLRLSCAASGFTFSNYAMSWVRQAPGKGLEWVATVTEGGDYNYYLDDVKGRFTISRDNAKNSLYLQMNSLRAEDTAVYYCARDDWPYFFDYWGQGTLVTVSS
VL: DIQMTQSPSSLSASVGDRVTITCRASENIYSNLAWYQQKPGKSPKLLVYGYKNLADGVPSRFSGSGSGTDYTLTISSLQPEDFATYYCQHFWTTPRTFGGGTKVEIK
B9: K17 IgG (VL-A51Y/W92K) (antibody, V domains shown)
VH: EVQLVESGGGLVQPGGSLRLSCAASGFTFSNYAMSWVRQAPGKGLEWVATVTEGGDYNYYLDDVKGRFTISRDNAKNSLYLQMNSLRAEDTAVYYCARDRWPYFFDYWGQGTLVTVSS
VL: DIQMTQSPSSLSASVGDRVTITCRASENIYSNLAWYQQKPGKSPKLLVYGYKNLADGVPSRFSGSGSGTDYTLTISSLQPEDFATYYCQHFKTTPRTFGGGTKVEIK
B10: Parent IgG Ab (full-length IgG of h11C5_C59Y/A43S) (antibody, V domains shown)
VH: EVQLVESGGGLVQPGGSLRLSCAASGFTFSNYAMSWVRQAPGKGLEWVATVTEGGDYNYYLDDVKGRFTISRDNAKNSLYLQMNSLRAEDTAVYYCARDRWPYFFDYWGQGTLVTVSS
VL: DIQMTQSPSSLSASVGDRVTITCRASENIYSNLAWYQQKPGKSPKLLVYGAKNLADGVPSRFSGSGSGTDYTLTISSLQPEDFATYYCQHFWTTPRTFGGGTKVEIK
B11: K10 IgG (VL-A51Y) (antibody, V domains shown)
VH: EVQLVESGGGLVQPGGSLRLSCAASGFTFSNYAMSWVRQAPGKGLEWVATVTEGGDYNYYLDDVKGRFTISRDNAKNSLYLQMNSLRAEDTAVYYCARDRWPYFFDYWGQGTLVTVSS
VL: DIQMTQSPSSLSASVGDRVTITCRASENIYSNLAWYQQKPGKSPKLLVYGYKNLADGVPSRFSGSGSGTDYTLTISSLQPEDFATYYCQHFWTTPRTFGGGTKVEIK

For one assay, the target named is T1, hu-M-IL1RAP construct, positions S21-T367 (extracellular domain of the membrane form of human IL1RAP) (human, UniProt Q9NPH3 21-367).
T1 construct: Biotinylated when captured on the Biacore chip
T1 sequence: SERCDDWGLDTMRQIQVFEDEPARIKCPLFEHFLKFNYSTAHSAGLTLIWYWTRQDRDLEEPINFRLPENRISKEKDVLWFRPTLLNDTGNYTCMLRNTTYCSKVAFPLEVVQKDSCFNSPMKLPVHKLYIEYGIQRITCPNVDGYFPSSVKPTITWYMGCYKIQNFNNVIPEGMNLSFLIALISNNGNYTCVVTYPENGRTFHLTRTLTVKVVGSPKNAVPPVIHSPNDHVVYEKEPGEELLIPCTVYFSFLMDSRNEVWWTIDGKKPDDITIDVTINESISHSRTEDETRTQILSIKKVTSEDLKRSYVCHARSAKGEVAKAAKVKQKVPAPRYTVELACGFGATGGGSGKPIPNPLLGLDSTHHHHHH
The experiment in a line: SPR, Fab analyte, 25 C.
For the molecule B1, binding was put at a Kd of 0.05 nM, the koff came to 0.000235 s⁻¹ and the kon turned out to be 4.71e+06 M⁻¹ s⁻¹.

As to B2, the Kd came to 0.0189 nM, the koff amounted to 0.000123 s⁻¹ and the kon is 6.52e+06 M⁻¹ s⁻¹.

The molecule B3 yielded a Kd of 0.0212 nM, an off-rate constant (koff) of 0.000102 s⁻¹ and a kon of 4.83e+06 M⁻¹ s⁻¹.

For B4, binding was characterised by a dissociation constant (Kd) of 0.0147 nM, the koff was determined as 6.25e-05 s⁻¹ and the kon was 4.25e+06 M⁻¹ s⁻¹.

B5 returned a Kd of 0.0524 nM, a koff of 0.000268 s⁻¹ and a kon of 5.11e+06 M⁻¹ s⁻¹.

A further assay deals with T2, human IL1RAP (hu-IL1RAP) on human cells (human, UniProt Q9NPH3 21-570).
T2 sequence: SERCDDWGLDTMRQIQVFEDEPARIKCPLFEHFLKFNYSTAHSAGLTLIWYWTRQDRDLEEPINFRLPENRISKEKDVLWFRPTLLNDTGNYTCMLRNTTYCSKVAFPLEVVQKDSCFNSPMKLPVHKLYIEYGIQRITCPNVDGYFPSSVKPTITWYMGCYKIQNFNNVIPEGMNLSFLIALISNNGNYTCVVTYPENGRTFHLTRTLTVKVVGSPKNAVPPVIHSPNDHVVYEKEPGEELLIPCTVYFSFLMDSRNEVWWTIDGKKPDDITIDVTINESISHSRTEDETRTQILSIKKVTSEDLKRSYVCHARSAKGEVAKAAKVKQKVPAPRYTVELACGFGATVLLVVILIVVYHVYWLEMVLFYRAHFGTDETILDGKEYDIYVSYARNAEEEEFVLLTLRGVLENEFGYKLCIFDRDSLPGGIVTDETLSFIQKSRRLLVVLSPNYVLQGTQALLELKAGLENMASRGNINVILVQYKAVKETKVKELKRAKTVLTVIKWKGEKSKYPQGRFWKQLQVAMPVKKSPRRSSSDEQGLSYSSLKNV
The experiment in a line: cell-based or functional assay.
On to B6, for which the “HEK-Blue, IL-1β, % inhibition at 100 nM (IgG)” value (shortened to “HEK-Blue, IL-1β, % inhibition”) amounted to 100%; the “HEK-Blue, IL-1β, IC50 (IgG)” value is 177 pM; the “HEK-Blue, IL-33, % inhibition at 100 nM (IgG)” value (“HEK-Blue, IL-33, % inhibition” below) came to 99%; the “HEK-Blue, IL-33, IC50 (IgG)” value was found to be 0.354 nM. The “HEK-Blue, IL-36α, % inhibition at 100 nM (IgG)” value (from here on “HEK-Blue, IL-36α, % inhibition”) stood at 100% and the “HEK-Blue, IL-36α, IC50 (IgG)” value turned out to be 280 pM.

For the molecule B7, the “HEK-Blue, IL-1β, % inhibition” value turned out to be 100%; the “HEK-Blue, IL-1β, IC50 (IgG)” value amounted to 332 pM; the “HEK-Blue, IL-33, % inhibition” value was determined as 100%; the “HEK-Blue, IL-33, IC50 (IgG)” value amounted to 1.77 nM. The “HEK-Blue, IL-36α, % inhibition” value came out at 100% and the “HEK-Blue, IL-36α, IC50 (IgG)” value came to 303 pM.

For B8, the “HEK-Blue, IL-1β, % inhibition” value was determined as 100%; the “HEK-Blue, IL-1β, IC50 (IgG)” value is 285 pM; the “HEK-Blue, IL-33, % inhibition” value stood at 100%; the “HEK-Blue, IL-33, IC50 (IgG)” value came out at 1.06 nM. The “HEK-Blue, IL-36α, % inhibition” value came out at 100% and the “HEK-Blue, IL-36α, IC50 (IgG)” value is 340 pM.

With B9, the “HEK-Blue, IL-1β, % inhibition” value turned out to be 100%; the “HEK-Blue, IL-1β, IC50 (IgG)” value worked out at 468 pM; the “HEK-Blue, IL-33, % inhibition” value is 99%; the “HEK-Blue, IL-33, IC50 (IgG)” value was 2.74 nM. The “HEK-Blue, IL-36α, % inhibition” value was found to be 100% and the “HEK-Blue, IL-36α, IC50 (IgG)” value worked out at 495 pM.

In the case of B10, the “HEK-Blue, IL-1β, % inhibition” value was found to be 99%; the “HEK-Blue, IL-1β, IC50 (IgG)” value is 363 pM; the “HEK-Blue, IL-33, % inhibition” value amounted to 99%; the “HEK-Blue, IL-33, IC50 (IgG)” value was determined as 2.04 nM. Moreover, the “HEK-Blue, IL-36α, % inhibition” value was 89% and the “HEK-Blue, IL-36α, IC50 (IgG)” value was determined as 340 pM.

As for B11, the “HEK-Blue, IL-1β, % inhibition” value was 100%; the “HEK-Blue, IL-1β, IC50 (IgG)” value worked out at 230 pM; the “HEK-Blue, IL-33, % inhibition” value stood at 100%; the “HEK-Blue, IL-33, IC50 (IgG)” value came to 1.37 nM. The “HEK-Blue, IL-36α, % inhibition” value came to 100% and the “HEK-Blue, IL-36α, IC50 (IgG)” value amounted to 247 pM.
